Experimental data as given in patent US20050214813A1.

B1: PSEC0129 (supernatant containing the product expressed from the clone of SEQ ID NO: 3) (protein)
chain: AFHASAVGLRSSDEQKQQPPNSFSQQHSETQGAEKPDPESSHSPPRYTDQGGEEEEDYESEEQLQHRILTAALEFVPAHGWTAEAIAEGAQVCIGEGGAT
B2: PSEC0220 (supernatant containing the product expressed from the clone of SEQ ID NO. 5) (protein)
chain: LWWAVGSPLVMDPTSICRKARRLAGRQAELCQAEPEVVAELARGARLGVRECQFQFRFRRWNCSSHSKAFGRILQQDIRETAFVFAITAAGASHAVTQACSMGELLQCGCQAPRWRAPPRPSGLPGTPGPPGPAGSPEGSAAWEWGGCGDDVDFGDEKSRLFMDARHKRGRGDIRALVQLHNNEAGRLAVRSHTRTECKCHGLSGSCALRTCWQKLPPFREVGARLLERFHGASRVMGTNDGKALLPAVRTLKPPGRADLLYAADSPDFCAPNRRTGSPGTRGRACNSSAPDLSGCDLLCCGRGHRQESVQLEENCLCRFHWCCVVQCHRCRVRKELSLCL
B3: PSEC0242 (supernatant containing the product expressed from the clone of SEQ ID NO. 7) (protein)
chain: MMGLGNGRRSMKSPPLVLAALVACIIVLGFNYWIASSRSVDLQTRIMELEGRVRRAAAERGAVELKKNEFQGELEKQREQLDKIQSSHNFQLESVNKLYQDEKAVLVNNITTGERLIRVLQDQLKTLQRNYGRLQQDVLQFQKNQTNLERKFSYDLSQCINQMKEVKEQCEERIEEVTKKGNEAVASRDLSENNDQRQQLQALSEPQPRLQAAGLPHTEVPQGKGNVLGNSKSQTPAPSSEVVLDSKRQVEKEETNEIQVVNEEPQRDRLPQEPGREQVVEDRPVGGRGFGGAGELGQTPQVQAALSVSQENPEMEGPERDQLVIPDGQEEEQEAAGEGRNQQKLRGEDDYNMDENEAESETDKQAALAGNDRNIDVFNVEDQKRDTINLLDQREKRNHTL
B4: PSEC0256 (supernatant containing the product expressed from the clone of SEQ ID NO. 9) (protein)
chain: MAGHSMVLVEILDVNDNVPEVMVTSLSLPVQEDAQVGTVIALISVSDRDSGANGQVICSLTPHVPFKLVSTYKNYYSLVLDSALDRESVSAYELVVTARDGGSPSLWATARVSVEVADVNDNAPAFAQPEYTVFVKENNPPGCHIFTVSAWDADAQKNALVSYSLVERRVGEHALSSYVSVHAESGKVYALQPLDHEELELLQFQVSARDAGVPPLGSNVTLQVFVLDENDNAPALLATPAGSAGGAVSELVPRSVGAGHVVAKVRAVDADSGYNAWLSYELQPAAVGAHIPFHVGLYTGEISTTRILDEADAPRHRLLVLVKDHGEPALTSTATVLVSLVENGQAPKTSSRASVGAVDPEAALVDINVYLIIAICAVSSLLVLTLLLYTALRCSAPPTVSRCAPGKPTLVCSSAVGSWSYSQQRRQRVCSAESPPKTDLMAFSPSLQLSREDCLNPPSEPRQPNPDWRYSASLRAGMHSSVHLEEAGILRAGPGGPDQQWPTVSSATPEPEAGEVSPPVGAGVNSNSWTFKYGPGNPKQSGPGELPDKFIIPGSPAIISIRQEPTNSQIDKSDFITFGKKEETKKKKKKKKGNKTQEKKEKGNSTTDNSDQ

What follows are binders tested against Aβ1-28 consisting of 28 amino acid residues from the N-terminus of Aβ (UniProt P05067) (assay: cell-based or functional assay).
Sequence of Aβ1-28 consisting of 28 amino acid residues from the N-terminus of Aβ (P05067 672-699): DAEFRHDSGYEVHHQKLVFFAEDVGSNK
With B1 the Fluorescence Intensity (thioflavin-T, Aβ1-28 aggregation after 24 hours, relative to the Aβ40-1 control taken as 100%) was 24%. B2 showed a Fluorescence Intensity (thioflavin-T, Aβ1-28 aggregation after 24 hours, relative to the Aβ40-1 control taken as 100%) of 250%. B3 gave a Fluorescence Intensity (thioflavin-T, Aβ1-28 aggregation after 24 hours, relative to the Aβ40-1 control taken as 100%) of 16%. B4 gave a Fluorescence Intensity (thioflavin-T, Aβ1-28 aggregation after 24 hours, relative to the Aβ40-1 control taken as 100%) of 460%.
